This note sets out measurements from publication PMC2033760, “Interleukin 1 modulates growth of human renal carcinoma cells in vitro” (British Journal of Cancer, 1995).

The assay addresses T1, IL-1 receptor type I (human (endogenous in A-498), UniProt P14778 18-569).
T1 construct: In the functional row on Caki-2 cells the endogenous receptor of those cells is meant; it was not detected there directly; also called IL-1 receptor type I (80 kDa); source: endogenous, on A-498 cells
T1 sequence (looked up): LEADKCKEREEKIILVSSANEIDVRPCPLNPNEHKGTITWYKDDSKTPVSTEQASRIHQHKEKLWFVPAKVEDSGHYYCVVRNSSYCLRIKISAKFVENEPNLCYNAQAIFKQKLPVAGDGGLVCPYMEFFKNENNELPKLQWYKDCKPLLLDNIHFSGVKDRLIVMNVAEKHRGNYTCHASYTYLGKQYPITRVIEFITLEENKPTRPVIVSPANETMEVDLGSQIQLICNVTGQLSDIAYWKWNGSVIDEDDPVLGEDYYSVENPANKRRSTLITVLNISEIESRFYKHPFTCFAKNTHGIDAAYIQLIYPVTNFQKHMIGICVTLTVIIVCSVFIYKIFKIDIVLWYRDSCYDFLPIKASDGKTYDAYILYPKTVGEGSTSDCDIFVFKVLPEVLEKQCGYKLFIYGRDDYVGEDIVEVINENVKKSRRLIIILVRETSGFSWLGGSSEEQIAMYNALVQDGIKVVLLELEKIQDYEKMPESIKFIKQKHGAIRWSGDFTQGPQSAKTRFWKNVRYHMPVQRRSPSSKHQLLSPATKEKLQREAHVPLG
Put plainly: radioligand binding; [125I]IL-1 alpha at increasing concentrations (direct) or at 80 pM with increasing unlabelled IL-1 alpha (competition) on subconfluent A-498 cells in 24-well plates; cells washed with binding medium pH 3.0 for 30 s beforehand; binding medium with 20 mM HEPES pH 7.0; 3 h at 4 C; Scatchard analysis, two classes of binding sites. The settings on record: one partner purified.

B1: [125I]IL-1 alpha (ligand, UniProt P01583 113-271, looked up)
chain: SAPFSFLSNVKYNFMRIIKYEFILNDALNQSIIRANDQYLTAAALHNLDEAVKFDMGAYKSSKDDAKITVILRISKTQLYVTAQDEDQPVLLKEMPEIPKTITGSETNLLFFWETHGTKNYFTSVAHPNLFIATKQDYWVCLAGGPPSITDFQILENQA
modifications: 125I label (radioiodinated)
notes: interleukin 1 alpha, the 17 kDa form as printed; also called radiolabelled interleukin 1 alpha; source: bought: Amersham-Buchler
On to B1, for which the “KD of the high-affinity sites” value was 0.045 nM and the “KD of the low-affinity sites” value worked out at 1.3 nM.
